Literature values in publication PMC3050594.
pKd: −log10 of the molar value. Like-named read-outs stand apart in the source and are kept apart here.

Tests used:
[1] = biological target: RSV F glycoprotein (Human respiratory syncytial virus) (UniProt P03420)
[2] = biological target: RSV F glycoprotein (Human respiratory syncytial virus) (UniProt P03420); remark: listed apart in the source

Substance | pKd [1] | pKd [2]
motavizumab | 10.46 | 
palivizumab |  | 8.85
